B1: receptor-associated protein (RAP) (ligand)
chain: YSREKNQPKPSPKRESGEEFRMEKLNQLWEKAQRLHLPPVRLAELHADLKIQERDELAWKKLKLDGLDEDGEKEARLIRNLNVILAKYGLDGKKDARQVTSNSLSGTQEDGLDDPRLEKLWHKAKTSGKFSGEELDKLWREFLHHKEKVHEYNVLLETLSRTEEIHENVISPSDLSDIKGSVLHSRHTELKEKLRSINQGLDRLRRVSHQGYSTEAEFEEPRVIDLWDLAQSANLTDKELEAFREELKHFEAKIEKHNHYQKQLEIAHEKLRHAESVGDGERVSRSREKHALLEGRTKELGYTVKKHLQDLSGRISRARH
B2: sLRP2, the entire second ligand-binding domain of human LRP1 (receptor, UniProt Q07954 806-1183, looked up)
chain: KCRVNNGGCSSLCLATPGSRQCACAEDQVLDADGVTCLANPSYVPPPQCQPGEFACANSRCIQERWKCDGDNDCLDNSDEAPALCHQHTCPSDRFKCENNRCIPNRWLCDGDNDCGNSEDESNATCSARTCPPNQFSCASGRCIPISWTCDLDDDCGDRSDESASCAYPTCFPLTQFTCNNGRCININWRCDNDNDCGDNSDEAGCSHSCSSTQFKCNSGRCIPEHWTCDGDNDCGDYSDETHANCTNQATRPPGGCHTDEFQCRLDGLCIPLRWRCDGDTDCMDSSDEKSCEGVTHVCDPSVKFGCKDSARCISKAWVCDGDNDCEDNSDEENCESLACRPPSHPCANNTSVCLPPDKLCDGNDDCGDGSDEGELCD
notes: Recombinant soluble fragment made as in Bu and Rennke 1996; also called immobilized LRP

Legend:
[1] = target: mLRP/LRPTmMegT mini-receptor (MEGt) (UniProt Q07954 3293-4444); assay: cell-based or functional assay
Sequence of mLRP/LRPTmMegT mini-receptor (MEGt) (Q07954 3293-4444): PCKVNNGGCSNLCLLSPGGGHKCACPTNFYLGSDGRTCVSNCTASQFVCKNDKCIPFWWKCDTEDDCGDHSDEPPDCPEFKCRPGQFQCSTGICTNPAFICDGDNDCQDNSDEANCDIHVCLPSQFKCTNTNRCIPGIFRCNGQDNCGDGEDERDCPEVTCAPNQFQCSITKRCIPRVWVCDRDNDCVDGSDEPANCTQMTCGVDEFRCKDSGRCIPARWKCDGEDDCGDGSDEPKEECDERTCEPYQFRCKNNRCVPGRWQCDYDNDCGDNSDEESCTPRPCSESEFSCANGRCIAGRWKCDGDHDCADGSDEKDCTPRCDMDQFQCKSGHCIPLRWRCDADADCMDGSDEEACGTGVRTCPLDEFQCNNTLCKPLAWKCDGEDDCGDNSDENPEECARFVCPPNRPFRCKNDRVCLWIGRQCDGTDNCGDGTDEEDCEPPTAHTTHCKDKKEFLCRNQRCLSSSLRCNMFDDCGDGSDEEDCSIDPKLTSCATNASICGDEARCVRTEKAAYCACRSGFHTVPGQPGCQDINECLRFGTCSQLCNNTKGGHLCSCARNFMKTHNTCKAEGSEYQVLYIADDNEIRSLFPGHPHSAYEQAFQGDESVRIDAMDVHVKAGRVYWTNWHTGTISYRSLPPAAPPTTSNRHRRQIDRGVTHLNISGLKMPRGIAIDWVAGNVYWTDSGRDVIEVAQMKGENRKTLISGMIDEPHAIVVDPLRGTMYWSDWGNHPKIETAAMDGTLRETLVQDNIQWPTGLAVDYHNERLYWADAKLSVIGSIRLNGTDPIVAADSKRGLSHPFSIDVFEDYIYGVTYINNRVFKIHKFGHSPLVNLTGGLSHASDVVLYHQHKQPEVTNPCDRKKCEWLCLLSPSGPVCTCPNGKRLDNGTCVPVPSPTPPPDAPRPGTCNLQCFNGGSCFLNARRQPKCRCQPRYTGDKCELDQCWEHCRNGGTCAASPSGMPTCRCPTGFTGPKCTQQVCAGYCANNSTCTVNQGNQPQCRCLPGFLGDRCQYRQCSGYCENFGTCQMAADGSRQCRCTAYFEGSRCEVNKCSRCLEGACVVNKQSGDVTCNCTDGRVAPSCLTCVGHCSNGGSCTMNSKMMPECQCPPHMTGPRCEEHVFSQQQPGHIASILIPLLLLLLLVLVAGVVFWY

[2] = target: T1, recombinant human alpha-L-iduronidase (Aldurazyme) (human, UniProt P35475 27-653, limits assumed); assay: ligand blot, sLRP2 spotted on membrane, detection with antibodies
T1 construct: also called rhIDU; Recombinant human IDU
T1 sequence (looked up): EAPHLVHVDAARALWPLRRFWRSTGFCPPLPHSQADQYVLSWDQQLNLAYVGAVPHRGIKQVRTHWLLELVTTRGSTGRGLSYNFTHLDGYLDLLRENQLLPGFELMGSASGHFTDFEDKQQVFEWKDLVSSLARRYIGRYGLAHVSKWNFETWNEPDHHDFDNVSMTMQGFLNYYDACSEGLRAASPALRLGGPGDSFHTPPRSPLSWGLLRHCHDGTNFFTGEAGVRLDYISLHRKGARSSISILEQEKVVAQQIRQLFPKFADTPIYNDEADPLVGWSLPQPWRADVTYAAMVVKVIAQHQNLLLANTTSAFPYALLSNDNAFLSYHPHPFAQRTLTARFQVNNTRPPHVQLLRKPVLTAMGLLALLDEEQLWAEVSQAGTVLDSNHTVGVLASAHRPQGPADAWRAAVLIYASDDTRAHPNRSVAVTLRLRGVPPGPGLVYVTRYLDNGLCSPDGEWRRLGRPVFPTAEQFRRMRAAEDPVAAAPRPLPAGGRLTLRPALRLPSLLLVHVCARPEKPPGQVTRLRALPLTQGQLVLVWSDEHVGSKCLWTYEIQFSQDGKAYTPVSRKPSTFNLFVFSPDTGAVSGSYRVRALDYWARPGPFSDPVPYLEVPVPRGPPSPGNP
Description: Membranes were then mounted in a Bio-Rad dot blot apparatus. The second ligand-binding domain of LRP1 (sLRP2, 1 μg/well) was applied to the membrane by vacuum filtration. The membrane was then cut into sections that were placed in separate wells of a 24-well plate. Membranes were blocked in TBS (20 mM Tris pH 7.4, 150 mM Sodium Chloride) with 5 mM Calcium Chloride and 3% non-fat dry milk for 30 minutes. Ligands were incubated with each membrane spot for 2 hours at room temperature. Individual blots were washed 2×5 minutes each with blocking buffer and then incubated with different antibodies in block buffer for one hour at room temperature to detect binding.

Row | ratio of apical-to-basolateral to basolateral-to-apical permeability coefficient of 125I-RAP, MEGt-transfected MDCK [1] | binding result [2] | Binder
1 | 460 times |  | B1
2 |  | no binding | B2

— patent US20050042227A1 (published 2005)
